Measurements: the DeepSol protein solubility set

Assay: soluble on expression in E. coli; label from the status in PepcDB or PDB records

Soluble on expression in E. coli, soluble:
MRDRLLAAEKVKAIDWRDDALYLLDQRVLPFEEVWHRYTTAAGVAEAIRTMVVRGAPAIGISAAYGAVLGARARIAEGGDWYPALEEDMQLLADSRPTAVNLFWALNRIRDRLMRVKNGDNPLAALEAEAVAIHLSDREANLTMAQLGADLIRKHQGNLQTVLTHCNTGALATGGFGTALGVIRAAHLEGMIERVYADETRPWLQGSRLTAWELANEGIPVTLNADSAAAHLMRTKGITWVIVGADRITANGDVANKIGTYQLAVAAMHHGVRFMVVAPSSTIDMEMASGDDIIIEERDGRELLEVGGQRVGADVEAFNPVFDVTPADLIDAIVTEKGIVERPDTARMAQLMSRKHLHLEHHHHHH
MSLKQYKILLIVADGLGDRPVSKLNGLTPLEAANKPAITDLLKNSMIGLMDPISPGIIPGSDTSHLSIFGLDPHVYYRGRGAFEALGAGATLSHGDVAFRGNFATVNNDLVVVDRRAGRKLEEGEQLVKELNEKIKEINDVKIKFYKGTEHRIAVVLSGKGISDKVSDTDPHHEGLKVLESKPLEDSNEAIRTAEIINILTRKVFDVLNSSEINKRRIEQGEKPANIVLLRGAAHYVKLPPFSSYTKLKAAAVSATALIKGICRELGMNVITPSGATGGIDTNYNAKAKAAIELLKENDFVFLHIKATDAASHDGLVEEKVKAIERIDRVIGAIIDNIGRDNLILMFTGDHVTPVEIKEHTGDPVPVLLYVPYPIINDNVGDFNEKEARKGSLRIRGLDVTNILLNYSNRAEKYGSEGHHHHHH
MSLRIVIAGAGEVGYHLAMSLAPNHDVIIIEKDVSRFERVSELDVVAINGNAANMKVLRDAGVERADVFLAVTGNDEVNLLSGLAAKKVGAKNVIVRVENPEYVDRPIVKEHPLGYDVLICPQLSLAQEAARLIGIPGAIEVVTFSGGKVEMIELQVMEGSKADGKAIADLYLPQNVVIASIYRNGHIEIPRGDTVLRAGDRVAIVSKTEDVEMLKGIFGPPVTRRVTIFGAGTIGSYTAKILAKGMTSVKLIESSMERCEALSGELEGVRIVCGDATDIEFLIEEEIGKSDAVLAATESDEKNLLISLLSKNLGARIAIAKVEKREYVKLFEAVGVDVALNPRSVTYNEVSKLLRTMRIETLAEIEGTAVVEVVVRNTRLVGKALKDLPLPKDAIIGAIVRGNECLIPRGDTTIEYEDRLLVFAKWDEIEKIEEIFREGHHHHHH
AHHHHHHGSVKIGVIGLQGDVSEHIEATKRALERLGIEGSVIWVKRPEQLNQIDGVIIPGGESTTISRLMQRTGLFDPLKKMIEDGLPAMGTCAGLIMLAKEVIGATPEQKFLEVLDVKVNRNAYGRQVDSFEAPVKLAFDDKPFIGVFIRAPRIVELLSDKVKPLAWLEDRVVGVEQGNVIGLEFHPELTDDTRIHEYFLKKIV
CFTPESTALLESGVRKPLGELSIGDRVLSMTANGQAVYSEVILFMDRNLEQMQNFVQLHTDGGAVLTVTPAHLVSVWQPESQKLTFVFADRIEEKNQVLVRDVETGELRPQRVVKVGSVRSKGVVAPLTREGTIVVNSVAASCYA
MLKVEMLSTGDEVLHGQIVDTNAAWLADFFFHQGLPLSRRNTVGDNLDDLVTILRERSQHADVLIVNGGLGPTSDDLSALAAATAKGEGLVLHEAWLKEMERYFHERGRVMAPSNRKQAELPASAEFINNPVGTACGFAVQLNRCLMFFTPGVPSEFKVMVEHEILPRLRERFSLPQPPVCLRLTTFGRSESDLAQSLDTLQLPPGVTMGYRSSMPIIELKLTGPASEQQAMEKLWLDVKRVAGQSVIFEGTEGLPAQISRELQNRQFSLTLSEQFTGGLLALQLSRAGAPLLACEVVPSQEETLAQTAHWITERRANHFAGLALAVSGFENEHLNFALATPDGTLALRVRFSTTRYSLAIRQEVCAMMALNMLRRWLNGQDIASEHGWIEVVESMTLSV
SVPQISQPHFLLDGLSSQPLFNDIAAGIPSITAYSKNGLKIEFTFERSNTNPSVTVITIQASNSTELDMTDFVFQAAVPKTFQLQLLSPSSSIVPAFNTGTITQVIKVLNPQKQQLRMRIKLTYNHKGSAMQDLAEVNNFPPQSWQ
MGSDKIHHHHHHMIVEKVLIVDPIDGEFTGDVEIEEGKIVKVEKRECIPRGVLMPGFVDPHIHGVVGADTMNCDFSEMEEFLYSQGVTTFLATTVSTSLEKMKEILRKARDYILENPSTSLLGVHLEGPYISKEKKGAHSEKHIRPPSERELSEIDSPAKMLTFAPEIESSELLLRLVKRDIVLSAGHSIATFEEFMKFYKEGVKRITHFPNGLKPLHHREIGITGAGLLLDDVKLELICDGVHLSREMVKLVYKVKKANGIVLVTDSISAAGLKDGTTTLGDLVVKVKDGVPRLEDGTLAGSTLFFSQAVKNFRKFTGCSITELAKVSSYNSCVELGLDDRGRIAEGTRADLVLLDEDLNVVMTIKEGEVVFRSR
MTDYDLAKETAAWLNKQLQIRPVLGIVCGSGLGKIGDSLETSITVAYSDIPNFPVGSVKGHAGSLIFGSVNGVSCVCMKGRFHLYEGHTAARATFPMRVFKALGVKIVVLTNAAGGLNPSYRPGDFMVVRDHINLPGLAGANPLTGPNDDTEGERFPSMTSVYDKTLRKYAISAARELGMSYATHEGVYCCVNGPSFETPAECKILRLMGSDAVGMSTAPETIVAKHGGMRCLAVSLISNVIASNCETPAEPTHEEVLRAGEEASARMTALVKLVIEKIRGELPR
MSLSEALERLIDQGVGREPADIVLKGGRFFDLVTGELVASDIAISGERIVGTCGDYEGREEIDVTGRIVVPGFIDTHLHIESSLVTPHEFDRCVLPLGITTVVCDPHEIANVLGTEGIQYFLDSAMETVMDIRVQLSSCVPATHLETSGADLPVGRLTPFRHHPKVIGLAEFMNFPGVVNKDPVCLAKLDAFQDGHIDGHAPLLRGKELNGYLAAGIRTDHECTSAEEALEKIRKGMHILVREGSVSKDLQALMPILTERLSPYLALCTDDRNPLDIAEQGHLDNMIRTAISAGVEPLAIYRAASISAARAFGLRDRGLVAPGWRADLVIVDSLENCKAELVLSAGRRVTDALFAGRKPVEPVGLDSVKAREVKAADFGLPYNEGETSVLGVLPGKIITEHRRYRLPAEGNRTGVDLDRDIIKVAVIERHGVNGNHANGFVQGFGLKKGAIASTVGHDSHNICVVGVNDDDMALAVNRLGEIKGGFVVVHDGKVTGEIALPVAGLMSLEPYERVRDTLHHLRQAAFALGATLEEPFLQLAFLPLPVIPHLKISDRGLVDVDRFMLIGEGHHHHHH
MQLEPQIKTQLQAIVEAARERRAEDVVALDLTEVSSSLEYFVICTASAGLQLNAVQENIREKAQEAGLPRPSIEGPSERWLLLAFGGSIVVHIMTKDAREYYDLEGLWSDAKVLDL
SDLFTDGDIFQDIVDAACKRRVPVYIILDEAGVKYFLEMCQDLQLTDFRIRNIRVRSVTGVGFYMPMGRIKGTLSSRFLMVDGDKVATGSYRFTWSSSHVDRNLLLLLTGQNVEPFDTEFRELYAISEEVDLYRQLSLAGRVGLHYSSTVARKLINPKYALVSGCRHPPGEMMRWAARQQWEAGGNPEGQEEGASGGESAWRLESFLKDLVTVEQVLPPVEPIPLGELSQKDGRMVSHMHRDLKPKSREAPSRNGMGEAARGEAAPARRFSSRLFSRRAKRPAAPNGMASSVSTETSEVEFLTGKRPNENSSADISGKTSPSSAKPSNCVIS

Soluble on expression in E. coli, not soluble:
MGSDKIHHHHHHMESAIDKHLVCPRTLSRRVADDYQPPFPMYVARAAEDLSQVVMGYFGVQYRGADQRSVALAALRRIVADFDAPDGPGNHDLTQHTDNQGYDNLIAVGYWRDPDAYARWIASPAVAEWWASDARLADGIGYFREIVAPRAEQFETLYAFTNDFPGVGSIMDGVSGEIEEHGYWGSMRDRFPISQTDWMHADGELRIVAGDPARGGRVVVLAHDNIALIRSGQDWRAAEDDERRLYLDEIEPTLRSGMDFLRDNGVDVGCYSNRYVRSIDLDGNLLDESYNIGHWRSLDRLERWAESHPTHLRIFVTFFRVVTGLSKLRLYHEVSVFDAKHQVYEYVNCHPTTGMMRDAVAR
MGSDKIHHHHHHMYFITLSRQLGTKGTEIAKLVAKELHYDFYDTEAIEKKAGEMGFLDDIRKVDDKPPSPLKQLFSWQTETCLEHLYTVIYDLSRYGNAVVLGRGGNMLFRPIPHALHVRVIASHEKRVQNLLEKVYRRETAVMIMEKSDQERSSFIRFAFNRDWGDPELYDMVLNMDNMTVRSAADTILRAARLRESQCPSRDGMSPLNLMELTAKVKAALANAGFPSNYASPFVNAPGKVRLTGIVHDPREKLAAEMTALKVEGVESVENRIQIAGS
MGSDKIHHHHHHMFGLPGKKSSAVLGVDVSSSSVKLLELSKHGDRYKVESYAVEPLPANAVVEKNITDVEAVGEVLKRVASKSRTSVKQVAVAVSGSAVITKVIQMDGGLNEFEMEDQIALEADQYIPYPLDEVAIDFEVQGPSESNPDQVDVLLAACRKENVDIREDALEIAGLTTKIVDVEAYALERAYSLIEPQLDSQGEELVVAIVDIGATMTTLSVLAEGKTVYTREQIFGGKQLTEEIQRRYGLSLEEAGLAKKQGGLPDDYNEEVLTPFREAVVQQVARALQFFFGASQYNAVDYVVLAGGTASIQGLTEMVEEKTGTPTLVANPFANMAVGSRVNASALSNDAPSLMIACGLAMRSFD
VFDRPLFALDFSKCTEKIIQTTELFKELVKEAILLHVVDYGKESEVEENIQKATQKLKEIAEKLDFPSEVVVHSGDASKEILMTAPSVGATLIVIGKRGRNILQLLMGSTAEIVIRNSVLPVLIVP
MDDIRKIERLAAASWPAYFQKSIGKWLLRANFGVTKRANSVWTSADMPEGDFQLEAELFYQSLGLPVCFHISNASPKGLDDALADSRYEKVDECFQMTALCRSIMSRTNDNSRFTYKWEQEPSSVWIDEFIQLEGFSPERHKGYKHIFERMPPCKTFFKMYDKESLTALGTVSVIDGYGGLSNIVVAEEHRGKGAGTQVIRVLTEWAKNNGAERMFLQVMKENLAAVSLYGKIGFSPISEHHYRIKRLEHHHHHH
VVPGPVHTSPREVAGPVDVLILAVKATQNDAARPWLTRLCDERTVVAVLQNGVEQVEQVQPHCPSSAVVPAIVWCSAETQPQGWVRLRGEAALVVPTGPAAEQFAGLLRGAGATVDCDPDFTTAAWRKLLVNALAGFMVLSGRRSAMFRRDDVAALSRRYVAECLAVARAEGARLDDDVVDEVVRLVRSAPQDMGTSMLADRAAHRPLEWDLRNGVIVRKARAHGLATPISDVLVPLLAAASDGPG
TDPDADRLGAAVRMPNGDYQVLTGNQLGSIMIHYILEAHQQAGTLPQNAAVLKSIVSSELATAIAEKCNTKMFNVLTGFKFIAEKIQQYEEDHSQTFMFGFEESYGYLVKPFVRDKDAIQALVLLAEVAAFYKKQGKTLYDGLQDIFEEFGYFEE
GKLDEFEAWMRTITKLDIVSLMDFNWGKGGLIKGEKVMNRLGDILGDLHIEDLSIPYTAVAADISNEKEVWLQKGSLLQAIRASISLPLYLMPIEFNGKTLIDGGVLNPVPIA
MRYEIADNYYAFWFRFVYPNRKLVERELYKEALELVKRDYNHYMGRVFEKASLDFLWKRFAFERAGRWWSREEEIDVVGVKRGMAYFFEVKWKDLSEREARRSLEHHHHHH
YIGSGASQPNRTDVVWMVPSWTCKNEYSIDVEKYGILQNEDQHFVGGKQFAIFYEHSFGKIPYFKAQNESDPKNGGLPQMGDLEAHLIQAEKDINETIPDENFNGIAVIDIEEFRPMWELSWGPFSVYKTESIRLTRQQHPYWSTKQIEWQAERDYEKACQKFFIETLRLGKRLRPNAKWGYYLFPKCNGDVGQKSDTDCSTLFQKFNDNLHWLWGESTALFPSIYLYPSQKQNPEYNFVNSGALITETKRIKRNYCPSCEIHVFTKIEYNPYYTPDDFYSKQNLASTLDLAIKMNANSVVIWSTSQSIGSRCGSLQTYVDNTLGPYLQLTDRNLD
